Test results taken from patent publication US20140348785A1.

Molecular target: biotinylated gp41 MPER peptide RRR-(656-683)-RRK-biotin (HIV-1)
Assay: SPR: biotinylated MPER peptide on an SA chip, Fab as analyte, 1:1 Langmuir fit

Substance 2F5 Fab has a Kd of 3.8 nM.

4E10 Fab was tested, and the Kd was 0.74 nM.
